Consider two molecules from EP2009026A1 (ThromboGenics N.V., dated 2008).

Numbering of substitutions follows the chain as printed.

Test [1] concerns the target T1, GST fusion protein of VPAC1 extracellular loop 2 (human).
T1 construct: also called isolated extracellular loop 2 of the VPAC1 receptor; not shown: GST (glutathione-S-transferase) fusion partner
T1 chain: IHFEDYGCWDTINSSLWW
The test is described as follows: western blotting of GST-loop fusion proteins.

Test [2] has as its target T2, GST-fused VPAC1 variant 4-2 (amino acids 231-457 of SEQ ID NO:15) (human, UniProt P32241 231-457).
T2 construct: not shown: By analogy w [CUT]
T2 sequence: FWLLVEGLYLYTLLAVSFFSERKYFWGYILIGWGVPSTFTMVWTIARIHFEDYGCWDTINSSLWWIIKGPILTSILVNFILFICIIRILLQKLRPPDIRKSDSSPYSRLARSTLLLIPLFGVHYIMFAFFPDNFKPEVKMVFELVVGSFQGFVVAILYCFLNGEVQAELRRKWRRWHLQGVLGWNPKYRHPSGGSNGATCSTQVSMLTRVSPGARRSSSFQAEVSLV
Briefly: western blotting of GST-fused VPAC1 deletion variants.

In test [3] the target is T3, GST-fused VPAC1 variant 3-2 (amino acids 123-457 of SEQ ID NO:15) (human, UniProt P32241 123-457).
T3 construct: not shown: By analogy w [CUT]
T3 sequence: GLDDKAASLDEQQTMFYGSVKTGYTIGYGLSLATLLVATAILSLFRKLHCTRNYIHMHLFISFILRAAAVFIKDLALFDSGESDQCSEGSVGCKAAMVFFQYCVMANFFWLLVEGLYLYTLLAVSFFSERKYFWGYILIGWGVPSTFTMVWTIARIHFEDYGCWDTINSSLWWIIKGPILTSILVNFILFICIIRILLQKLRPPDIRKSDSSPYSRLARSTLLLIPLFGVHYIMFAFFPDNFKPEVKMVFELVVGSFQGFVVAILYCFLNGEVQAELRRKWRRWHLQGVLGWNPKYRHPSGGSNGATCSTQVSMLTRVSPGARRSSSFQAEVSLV
The test is described as above.

Test [4] addresses T4, murine VPAC1 receptor on mouse bone marrow-derived CD41/61+ megakaryocytes (mouse, UniProt P97751 31-459).
T4 construct: whole, on cells; Endogenous receptor; It was detected by immunoblot of megakaryocytes and targeted on living megakaryocytes in the cAMP assay; also called VPAC1 receptor on the murine megakaryocytes
T4 sequence (looked up): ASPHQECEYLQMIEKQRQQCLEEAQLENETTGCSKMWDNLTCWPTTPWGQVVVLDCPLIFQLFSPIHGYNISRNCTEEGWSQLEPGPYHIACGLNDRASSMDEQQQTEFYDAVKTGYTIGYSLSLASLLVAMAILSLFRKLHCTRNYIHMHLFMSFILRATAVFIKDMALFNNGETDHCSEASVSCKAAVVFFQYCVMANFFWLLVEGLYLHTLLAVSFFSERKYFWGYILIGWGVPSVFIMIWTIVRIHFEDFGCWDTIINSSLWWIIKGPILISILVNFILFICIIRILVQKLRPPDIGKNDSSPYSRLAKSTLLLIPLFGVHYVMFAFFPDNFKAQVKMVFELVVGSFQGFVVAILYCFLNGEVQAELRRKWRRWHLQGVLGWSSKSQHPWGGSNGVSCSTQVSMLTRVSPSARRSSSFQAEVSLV
The test is described as follows: immunoblot of mouse bone marrow-derived megakaryocytes.

Test [5] deals with T5, GST-VPAC1 fusion protein (human VPAC1, full length) (human, UniProt P08515 1-218 = GST).
T5 construct: also called recombinant VPAC1
Briefly: SPR (BIAcore 1000), GST-VPAC1 immobilized; KA = 1/KD; first batch.

The target in test [6] is T5, GST-VPAC1 fusion protein (human VPAC1, …). Briefly: SPR (BIAcore 1000), GST-VPAC1 immobilized; KA = 1/KD; second batch.
The target is the same in test [7]. The test is described as follows: SPR (BIAcore 1000), GST-VPAC1 immobilized on CM5 chip, antibody injected, 1:1 Langmuir fit; first batch.
For test [8] the target is unchanged. The test is described as follows: SPR (BIAcore 1000), GST-VPAC1 immobilized on CM5 chip, antibody injected, 1:1 Langmuir fit; second batch.
The target is the same in test [9]. Briefly: SPR (BIAcore 1000), GST-VPAC1 immobilized; KA = 1/KD.
The target is the same in test [10]. The test is described as follows: SPR (BIAcore 1000), GST-VPAC1 immobilized on CM5 chip, antibody injected, 1:1 Langmuir fit.

B1: murine monoclonal anti-VPAC1 antibody 23A11 (antibody, V domains shown)
VH: EVQLQESGPSLVKPSQTLSLTCSVTGDSITSGYWNWIRKFPGNKLEYMGYIRYSGSTYYSPALKSRFSITRDTSKNQYYLQLNSVTTEDTATYYCSNWAYWGQGTLVTVSA
VL: DIVITQDELSNPVTSGESVSISCRSSKSLLYKDGKTYLNWFLQRPGQSPQLLIYLMSTRASGVSDRFSGSGSGTDFTLEISRVKAEDVGVYYCQQLVEYPLTFGAGTKLELK
notes: Murine hybridoma antibody (BALB/c mice); also called murine 23A11; anti-VPAC1 receptor antibody 23A11
As to B1, the binding result in test [1], in [2], in [3] and in test [4] was “binds” in each case. Also, the figures for the Ka in test [5] and in [6] were 3.54e+07 M⁻¹ and 5.04e+07 M⁻¹, respectively. The dissociation constant Kd was found to be 28.3 nM in test [7] and 19.9 nM in test [8].

B2: humanized 23A11 antibody (isotype not stated in Example 8) (antibody, V domains shown)
VH: EVQLQESGPGLVKPSQTLSLTCTVSGDSITSGYWNWIRKHPGKGLEYMGYIRYSGSTYYSPSLKSRFTISRDTSKNQYSLKLSSVTAADTATYYCSNWAYWGQGTLVTVSA
VL: B1 VL with D7S, E8P, N11L, S15P, S18P, E79K, K84E, A105Q, L111I
notes: The constant regions are human IgG1 or IgG4; also called humanize 23A11 antibody; rhu23A11
Turning to B2, the Ka in test [9] is 1.02e+08 M⁻¹. The Kd in test [10] came to 9.82 nM.
